Assay results as given in patent US20200407445A1 (ITEOS THERAPEUTICS, published 2020).
Substitutions are numbered along the chain they refer to.

T1: human TIGIT expressed on cells (human, UniProt Q495A1 22-244)
T1 construct: whole, on cells; on Jurkat E6.1 cells transduced with human TIGIT, on Promega TIGIT Effector cells or on human primary T cells; the assay field says which; also called hTIGIT; Jurkat-hTIGIT
T1 sequence (looked up): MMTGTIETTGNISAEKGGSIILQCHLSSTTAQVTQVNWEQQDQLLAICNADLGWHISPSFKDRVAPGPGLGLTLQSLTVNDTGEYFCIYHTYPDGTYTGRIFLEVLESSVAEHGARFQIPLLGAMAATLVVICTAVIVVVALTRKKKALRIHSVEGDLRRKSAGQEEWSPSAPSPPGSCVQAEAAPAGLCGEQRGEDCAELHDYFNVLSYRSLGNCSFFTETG

T2: Human TIGIT-His (human, UniProt Q495A1 22-141, biotinylated in the ForteBio Fab assay)
T2 construct: bought (Creative Biomart); also called Biotinylated Human TIGIT HIS; TIGIT-His monomer; not shown: His tag
T2 sequence (looked up): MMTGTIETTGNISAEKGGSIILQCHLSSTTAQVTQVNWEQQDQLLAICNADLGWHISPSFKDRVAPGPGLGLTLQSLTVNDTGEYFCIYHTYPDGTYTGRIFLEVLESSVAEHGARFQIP

T3: mouse TIGIT expressed on cells (mouse, UniProt P86176 29-249)
T3 construct: whole, on cells; on Jurkat cells engineered to express mouse TIGIT; also called mTIGIT; Jurkat-mTIGIT
T3 sequence (looked up): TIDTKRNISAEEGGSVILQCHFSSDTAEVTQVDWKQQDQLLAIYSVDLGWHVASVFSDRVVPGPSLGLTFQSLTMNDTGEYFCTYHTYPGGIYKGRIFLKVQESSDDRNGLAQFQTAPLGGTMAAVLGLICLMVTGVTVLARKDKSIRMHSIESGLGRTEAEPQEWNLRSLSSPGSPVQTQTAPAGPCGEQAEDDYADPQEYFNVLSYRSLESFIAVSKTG

T4: Human TIGIT-Fc (human, UniProt Q495A1 22-141)
T4 construct: bought (Creative Biomart); also called TIGIT-Fc antigen; TIGIT-Fc fusion antigen; not shown: Fc part
T4 sequence (looked up): T2 sequence (looked up)

B1: anti-TIGIT antibody clone 29494 (IgG) (antibody, V domains shown)
VH: QVQLQESGPGLVKPSETLSLTCTVSGGSISSGSYYLAWIRQPPGKGLEWIGSIFRSGSTYYNPSLESRVTISVDTSKNQFSLKLSSVTAADTAVYYCAIEGANFKDFGYVAFDIWGQGTMVTVSS
VL: EIVMTQSPATLSVSPGERATLSCRASQSVSSNLAWYQQKPGQAPRLLIYGASTRATGIPARFSGSGSGTEFTLTISSLQSEDFAVYYCQQSPPWPRTFGGGTKVEIK
B2: anti-TIGIT antibody clone 31288 (IgG) (antibody, V domains shown)
VH: B1 VH with V2L, M120T
VL: B1 VL
notes: human IgG
B3: anti-TIGIT antibody clone 29520 (IgG) (antibody, V domains shown)
VH: QVQLVESGGGLVQPGRSLRLSCAASGFTFRDYAMHWVRQAPGKGLEWVSGITWNSGLIGYADSVKGRFTISRDNAKNSLYLQMNSLRAEDTALYYCAKPVPRLRGLDVWGQGTMVTVSS
VL: DIQLTQSPSSVSASVGDRVTITCRASQGISSWLAWYQQKPGKAPKLLIYGASSLQSGVPSRFSGSGSGTDFTLTISSLQPEDFATYYCQQAFYLPWTFGGGTKVEIK
B4: anti-TIGIT antibody clone 29527 (IgG) (antibody, V domains shown)
VH: QVQLVESGGGVVQPGRSLRLSCAASGFTFSSSYMHWVRQAPGKGLEWVAVIGADGSNKYYADSVEGRFTISRDNSKNTLYLQMNSLRAEDTALYYCAKPVPRRRGLDVWGQGTMVTVSS
VL: B3 VL

What was measured:
[1] = biological target: T1, human TIGIT expressed on cells; assay: flow cytometry, competition with CD155-His (5 ug/ml) on Jurkat-hTIGIT
[2] = biological target: T1, human TIGIT expressed on cells; assay: cell-based or functional assay
[3] = biological target: T2, Human TIGIT-His; assay: Biacore 8K, IgG on CM5 chip, human TIGIT-HIS in solution
Procedure: (§1) Biosensor analysis was conducted at 25° C. in a HBS-EP buffer system (10 mM HEPES pH 7.3, 150 mM NaCl, 3 mM EDTA, 0.05% Surfactant P20) using a Biacore 8K optical biosensor docked with a CMS sensor chip (GE Healthcare, Marlboro, Mass.). The sample hotel was maintained at 8° C. […] This surface type provided a format for reproducibly capturing fresh analysis antibody after each regeneration step. Flow cell 2 was used to analyze captured antibody (60-90 RU) while flow cell 1 was used as a reference flow cell. […] Each of the antigen sample concentrations were run as a single replicate. Two blank (buffer) injections also were run and used to assess and subtract system artefacts. The association (300 s) and dissociation (600 s) phases for all antigen concentrations were performed at a flow rate of 30 uL/min. The surface was regenerated with three sequential injections (15 s, 15 s and 60 s) of 10 mM glycine, pH 1.5 at a flow rate of 30 uL/min. The data was aligned, double referenced, and fit to a 1:1 binding model using Biacore 8K Evaluation Software, version 1.0.

[4] = biological target: T2, Human TIGIT-His; assay: Biacore, IgG captured, TIGIT-His in solution
Procedure: as §1

[5] = biological target: T2, Human TIGIT-His; assay: MSD-SET, monovalent (Fab or mAb titrated, not said which)
Procedure: (§2) Briefly, solution equilibrium titrations (SET) were performed in PBS+0.1% IgG-Free BSA (PBSF) with antigen (TIGIT-His monomer) held constant at 10-100 pM and incubated with 3- to 5-fold serial dilutions of Fab or mAbs starting at 10 pM-10 nM. Antibodies (20 nM in PBS) were coated onto standard bind MSD-ECL plates overnight at 4° C. or at room temperature for 30 min. Plates were then blocked by BSA for 30 min with shaking at 700 rpm, followed by three washes with wash buffer (PBSF+0.05% Tween 20). SET samples were applied and incubated on the plates for 150s with shaking at 700 rpm followed by one wash. Antigen captured on a plate was detected with 250 ng/mL sulfotag-labeled streptavidin in PBSF by incubation on the plate for 3 min. The plates were washed three times with wash buffer and then read on the MSD Sector Imager 2400 instrument using 1× Read Buffer T with surfactant. The percent free antigen was plotted as a function of titrated antibody in Prism and fit to a quadratic equation to extract the KD. To improve throughput, liquid handling robots were used throughout MSD-SET experiments, including SET sample preparation.

[6] = biological target: T1, human TIGIT expressed on cells; assay: flow cytometry, 100 nM Ab, Jurkat-hTIGIT vs untransfected
Procedure: (§3) Antibodies were incubated with the cells for 20 min at 4° C. in FACS buffer. […] Geometric mean fluorecence intensity was analysed using LSR BD Fortessa. Cell binding was recorded as the median florescence intensity of PE on the transfected line compared to the un-transfected line for each antibody (Table 3).

[7] = biological target: T1, human TIGIT expressed on cells; assay: flow cytometry on Jurkat-hTIGIT, FIG. 9
Procedure: as §3

[8] = biological target: T3, mouse TIGIT expressed on cells; assay: flow cytometry, 100 nM Ab, Jurkat-mTIGIT vs untransfected
Procedure: as §3

[9] = biological target: T2, Human TIGIT-His; assay: MSD-SET, monovalent (Fab or mAb titrated, not said which); remark: listed apart in the source
Procedure: as §2

[10] = biological target: T4, Human TIGIT-Fc; assay: ForteBio BLI, IgG KD, avid
Procedure: Briefly, ForteBio affinity measurements were performed by loading IgGs on-line onto AHQ sensors. Sensors were equilibrated off-line in assay buffer for 30 min and then monitored on-line for 60 seconds for baseline establishment. Sensors with loaded IgGs were exposed to 100 nM antigen (human TIGIT-Fc, human TIGIT-His or cyno TIGIT-Fc) for 5 minutes, afterwards they were transferred to assay buffer for 5 min for off-rate measurement. Kinetics were analyzed using the 1:1 binding model.

[11] = biological target: T1, human TIGIT expressed on cells; assay: cell-based or functional assay; remark: listed apart in the source
[12] = biological target: T1, human TIGIT expressed on cells; assay: flow cytometry, total human primary CD8+ T cells, % TIGIT stained cells, FIG. 10A
[13] = biological target: T5, cynomolgus TIGIT on primary CD8+ T cells (Macaca fascicularis (cynomolgus), UniProt A0A7N9I9V4 89-312); assay: flow cytometry, cynomolgus CD69+CD8+ T cells, FIG. 11
T5 construct: whole, on cells
T5 sequence (A0A7N9I9V4 entry or part of it): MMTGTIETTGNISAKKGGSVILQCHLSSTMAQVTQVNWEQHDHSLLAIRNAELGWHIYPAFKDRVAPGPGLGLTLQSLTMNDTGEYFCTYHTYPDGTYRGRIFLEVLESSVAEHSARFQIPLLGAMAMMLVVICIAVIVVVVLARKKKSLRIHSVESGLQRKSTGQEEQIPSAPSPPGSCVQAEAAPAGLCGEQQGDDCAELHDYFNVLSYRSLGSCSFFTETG
Procedure: Isolated PBMCs from Macaca fascicularis were obtained from BioPRIM. Cells were thawed and stimulated using the T cell activation/expansion kit for non-human primate (Miltenyi Biotec) at 1:2 (bead:cell ratio) following the manufacturer's specifications. The next day, cells were collected, counted and distributed at 5×10^4 cells per well. […] Then, cells were washed and incubated with the following antibodies and LVD mix for data illustrated in FIGS. 11A and 11B: anti-CD4-PercP-Cy5.5 (clone A161A1, BioLegend 357414); anti-CD8-BV510 (clone SK1, BD Bioscience 563919), CD69-APC-Cy7 (Clone FN50, BioLegend, 310914) and LVD efluor 520 (eBioscience 65-0867-14). Stained cells were analysed by FACS using BD LSR Fortessa. The EC50 value of binding was calculated using the % of positive TIGIT stained cells gated on LVD-CD69+CD8+ T cells.

Binder | IC50 [1] | EC50 for increase in IFNg secretion by human primary CD8 T cells, FIG. 13B [2] | EC50 of Jurkat-hTIGIT cell activation (luciferase), FIG. 12B [2] | increase of IFNg secretion over isotype control, human primary CD8+ T cells + CHO-TCR-CD155 [2] | Kd [3] | Kd [4] | Kd [5] | FON (Fold Over Negative) [6] | EC50 [7] | FON (Fold Over Negative) [8] | Kd [9] | Kd [10] | Induction over Isotype control (fold change), luciferase, Jurkat-hTIGIT + CHO-TCR-CD155, 133 nM [11] | EC50 [12] | EC50 [13]
B1 | 0.07 nM | 6.1 nM | 4.4 nM | 5.8 fold | 0.27 nM | 0.27 nM | 0.07 nM | 164 fold | 0.07 nM | 511 fold | 0.07 nM | 0.376 nM | 3.42 fold |  | 
B2 |  |  |  |  | 0.192 nM | 0.192 nM |  |  |  |  |  |  |  |  | 
B3 | 0.102 nM | 11.1 nM | 2.3 nM | 5.4 fold | 0.716 nM | 0.716 nM | 0.21 nM | 166 fold | 0.119 nM | 535 fold | 0.21 nM | 0.384 nM | 2.52 fold | 0.181 nM | 1.73 nM
B4 | 0.078 nM | 5.1 nM | 32 nM | 4.5 fold | 1.2 nM |  | 0.64 nM | 142 fold | 0.05 nM | 414 fold | 0.64 nM | 0.35 nM | 2.96 fold | 0.253 nM | 0.378 nM
